The values below come from IntAct's records for PubMed 23386062.

Experiment [1] concerns the target nisch_human NISCH (UniProt Q9Y2I1).
For experiment [2] the target is unchanged. This is another data set of the same source.
Experiment [3] shares this target. The source holds these as a separate data set.
The target is the same in experiment [4]. This is another data set of the same source.

UniProt Q9Y2I1, sequence (Q9Y2I1 whole entry): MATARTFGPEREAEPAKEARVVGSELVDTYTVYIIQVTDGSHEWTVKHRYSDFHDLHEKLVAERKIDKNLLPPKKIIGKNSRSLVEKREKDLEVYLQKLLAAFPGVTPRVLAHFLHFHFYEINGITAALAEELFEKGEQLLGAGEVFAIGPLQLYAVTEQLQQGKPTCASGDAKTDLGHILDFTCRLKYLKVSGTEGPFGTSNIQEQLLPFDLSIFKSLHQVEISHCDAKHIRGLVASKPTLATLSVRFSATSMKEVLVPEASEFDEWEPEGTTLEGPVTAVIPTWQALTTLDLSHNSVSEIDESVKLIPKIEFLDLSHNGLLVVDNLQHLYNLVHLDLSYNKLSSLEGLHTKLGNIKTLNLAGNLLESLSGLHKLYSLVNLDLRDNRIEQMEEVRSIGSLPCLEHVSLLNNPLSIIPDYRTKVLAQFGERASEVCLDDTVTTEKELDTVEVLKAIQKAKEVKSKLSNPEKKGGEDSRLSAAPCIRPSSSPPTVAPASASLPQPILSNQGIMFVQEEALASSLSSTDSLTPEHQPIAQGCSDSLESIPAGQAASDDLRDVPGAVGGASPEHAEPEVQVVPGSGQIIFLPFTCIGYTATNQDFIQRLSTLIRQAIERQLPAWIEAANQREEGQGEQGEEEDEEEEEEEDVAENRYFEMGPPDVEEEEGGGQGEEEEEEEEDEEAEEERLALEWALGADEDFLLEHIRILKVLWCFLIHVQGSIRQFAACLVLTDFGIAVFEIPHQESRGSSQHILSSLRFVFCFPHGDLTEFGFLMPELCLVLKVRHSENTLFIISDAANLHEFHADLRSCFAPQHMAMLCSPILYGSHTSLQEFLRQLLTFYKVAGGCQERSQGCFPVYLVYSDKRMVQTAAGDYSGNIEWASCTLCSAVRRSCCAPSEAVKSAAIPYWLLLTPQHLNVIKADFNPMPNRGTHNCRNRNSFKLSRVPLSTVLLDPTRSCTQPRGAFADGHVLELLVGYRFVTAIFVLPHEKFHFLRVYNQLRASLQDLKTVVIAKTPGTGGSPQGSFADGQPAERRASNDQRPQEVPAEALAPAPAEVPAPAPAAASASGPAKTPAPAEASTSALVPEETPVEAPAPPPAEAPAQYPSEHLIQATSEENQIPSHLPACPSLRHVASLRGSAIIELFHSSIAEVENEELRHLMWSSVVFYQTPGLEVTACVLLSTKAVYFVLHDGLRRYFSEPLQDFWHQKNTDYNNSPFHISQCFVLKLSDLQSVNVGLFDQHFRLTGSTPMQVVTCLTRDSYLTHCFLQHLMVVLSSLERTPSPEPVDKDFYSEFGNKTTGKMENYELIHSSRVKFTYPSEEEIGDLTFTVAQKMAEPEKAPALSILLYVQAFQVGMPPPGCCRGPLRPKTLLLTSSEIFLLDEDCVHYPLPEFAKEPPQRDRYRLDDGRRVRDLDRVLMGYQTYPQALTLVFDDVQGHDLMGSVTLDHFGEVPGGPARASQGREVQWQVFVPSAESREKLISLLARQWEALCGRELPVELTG

For the substance “Ras-related protein Rab-14 (Rattus norvegicus (Rat)) (from UniProt P61107) S25N”, the “effect of a mutation on the interaction” value with nisch_human NISCH [1] is listed as “disrupting interaction”; with nisch_human NISCH [2], “decreasing interaction”.

“Ras-related protein Rab-14 (Rattus norvegicus (Rat)) (from UniProt P61107) Q70L”: in the experiment with nisch_human NISCH [3], the “effect of a mutation on the interaction” value is “increasing interaction”.

“Ras-related protein Rab-14 (Rattus norvegicus (Rat)) (from UniProt P61107) N124I”: the “effect of a mutation on the interaction” value with nisch_human NISCH [4] is on record as “decreasing interaction”.
